Measured values taken from publication PMC5382021.

Key:
Assay in all cases: purified protein
[1] = system: Nc1nc2c(ncn2[C@@H]2O[C@@H]3CO[P@](=O)(O)O[C@H]4[C@@H](O)[C@H](n5cnc6c(=O)[nH]c(N)nc65)O[C@@H]4CO[P@](=O)(O)O[C@H]3[C@H]2O)c(=O)[nH]1; settings: 50 mM Tris pH 7.5, 5 mM MnCl2, 37 °C
[2] = system: [H][C@@]1(O)[C@]2([H])OP(=O)(O)OC[C@@]3([H])O[C@@]([H])(n4cnc5c(N)ncnc54)[C@]([H])(O)[C@]3([H])OP(=O)(O)OC[C@@]2([H])O[C@@]1([H])n1cnc2c(N)ncnc21; settings: 50 mM Tris pH 7.5, 5 mM MnCl2, 37 °C
[3] = system: Nc1nc2c(ncn2[C@@H]2O[C@H](CO)[C@H]3OP(=O)(O)O[C@H]32)c(=O)[nH]1; settings: 2 mM Mn2+, pH 7.5
[4] = system: Nc1nc2c(ncn2[C@@H]2O[C@@H]3COP(=O)(O)O[C@H]4[C@@H](O)[C@H](n5cnc6c(N)ncnc65)O[C@@H]4COP(=O)(O)O[C@H]3[C@H]2O)c(=O)[nH]1; settings: 50 mM Tris pH 7.5, 5 mM MnCl2, 37 °C
[5] = system: O=c1ccn([C@@H]2O[C@H](CO)[C@H]3OP(=O)(O)O[C@H]32)c(=O)[nH]1; settings: 2 mM Mn2+, pH 7.5

rCdnP (CdnP, Gbs1929) (Streptococcus agalactiae 2603V/R)
Km [1]: 13.2 ± 6 µM
kcat [1]: 2.6 s⁻¹
kcat/Km [1]: 190000 M⁻¹ s⁻¹
Km [2]: 14 ± 1 µM
kcat [2]: 17.4 s⁻¹
kcat/Km [2]: 1.2e+06 M⁻¹ s⁻¹
Km [3]: 22 ± 4 µM
kcat [3]: 9.4 s⁻¹
kcat/Km [3]: 420000 M⁻¹ s⁻¹
Km [4]: 4.0 ± 1.6 µM
kcat [4]: 4.5 s⁻¹
kcat/Km [4]: 1.1e+06 M⁻¹ s⁻¹
Km [5]: 42 ± 10 µM
kcat [5]: 19.8 s⁻¹
kcat/Km [5]: 470000 M⁻¹ s⁻¹
